Data: patent publication US20080166345A1, “MEDICAMENTS COMPRISING GENE RECOMBINANT ANTIBODY AGAINST GANGLIOSIDE GD3” (KYOWA HAKKO KOGYO CO., LTD., priority 2001, published 2008)

Tests used:
[1] = tested on: B16-F10 cell; experiment: Fluorescent antibody technique (flow cytometer), parent cell line; format: binding, mouse; details: antibody 5 μg/ml; FIG. 3
Method: Each of 1×10^6 cells of the GD3 synthase gene transfectants B16-8-3 and B16-29-10 obtained in b. of the item (2) of Example 1 and the parent cell line B16-F10 cell were suspended in PBS, put into a microtube (manufactured by Treff) and centrifuged (2,000 rpm for 2 minutes) for washing the cells, 50 μl of the anti-GD3 human chimeric antibody KM871 (a solution prepared by adjusting to 5 μg/ml with 1% BSA-PBS, negative control was 1% BSA-PBS alone) was added thereto, followed by stirring, and the reaction was carried out at 4° C. for 1 hour. After the reaction and subsequent washing with PBS by centrifugation three times, 100 μl of biotin-labeled goat anti-human IgG (H+L) solution (manufactured by VECTOR, used by diluting 400 folds with 1% BSA-PBS) was added thereto, followed by stirring, and the reaction was carried out at 4° C. for 1 hour. After washing with PBS by centrifugation three times, 100 μl of a streptoavidin-labeled Cy5 pigment solution (Streptoavidin-RED670 manufactured by GIBCO, used by diluting 100 folds with 1% BSA-PBS) was added thereto, followed by stirring, and the reaction was carried out at 4° C. for 30 minutes. After the reaction and subsequent washing with PBS by centrifugation three times, the cells were again suspended in PBS to carry out the analysis using a flow cytometer EPICS Elite (manufactured by COULTER).

[2] = Reactivity of purified antibodies with GD3 (ELISA); format: binding; details: antibody 10 μg/ml, 20 pmol/well; FIG. 22
Method: (§1) Each ganglioside (2 nmol) was dissolved in […] of ethanol solution containing 10 μg of dipalmitoylphosphatidylcholine (manufactured by SIGMA) and 5 μg of cholesterol (manufactured by SIGMA). In each well of a 96 well plate for ELISA (manufactured by Greiner), 20 μl of the solution (becomes 20 pmol/well) or 20 μl of the solution diluted with ethanol was respectively dispensed, followed by air-drying, and then PBS containing 1% BSA (hereinafter referred to as “1% BSA-PBS”) was added in 100 μl/well and allowed to react at room temperature for 1 hour to thereby block remaining active groups. After discarding 1% BSA-PBS, culture supernatants of transformants or diluted solutions of humanized antibodies were added in 50 μl/well and allowed to react at room temperature for 1 hour. […] After the reaction and subsequent washing with Tween-PBS, an ABTS substrate solution (a solution prepared by dissolving 0.55 g of 2,2′-azinobis(3-ethylbenzothiazoline-6-sulfonic acid) in 1 L of 0.1 M citrate buffer (pH 4.2) and adding 1 μl/ml hydrogen peroxide just before the use) was added in 50 μl/well for color development and the absorbance at 415 nm (hereinafter referred to as “OD415”) was measured.
(§2) Reactivity of purified anti-GD3 CDR-grafted antibodies KM8869, KM8870 and KM8871 with GD3 (manufactured by DIA-IATRON) was measured by the ELISA shown in the item 2 of Reference Example. […]

[3] = Reactivity of purified antibodies with various gangliosides (ELISA); format: binding; details: antibody 10 μg/ml, 20 pmol/well; FIG. 22
Method: as §1, §2

[4] = as above; format: binding; details: antibody 10 μg/ml, 20 pmol/well; FIG. 22; remark: listed apart in the source
Method: as §1, §2

B1: KM871: anti-GD3 human chimeric antibody; VH SEQ ID NO:49, VL SEQ ID NO:50, human IgG1 and κ C regions (antibody, listed as Mus musculus, V domains shown)
VH: EVTLVESGGDFVKPGGSLKVSCAASGFAFSHYAMSWVRQTPAKRLEWVAYISSGGSGTYYSDSVKGRFTISRDNAKNTLYLQMRSLRSEDSAMYFCTRVKLGTYYFDSWGQGTTLTVSS
VL: DIQMTQTASSLPASLGDRVTISCSASQDISNYLNWYQQKPDGTVKLLIFYSSNLHSGVPSRFSGGGSGTDYSLTISNLEPEDIATYFCHQYSKLPWTFGGGTKLEIKR
modifications: human IgG1 and kappa constant regions
- reactivity with cells [1]: did not show reactivity
- binding to ganglioside [2]: bound strongly
- binding to ganglioside [3]: weakly
- binding to ganglioside [4]: did not bind
